Measurements: patent publication US20060292074A1 (SCHERING AKTIENGESELLSCHAFT, published 2006)
Values belong to the binder of their own block, whether it stands above or below them.

Experiments:
[1] = target: T1, recombinant TR protein (extracellular domain of TR, amino acids 1-302, C-terminal 6xHis tag) (human) (UniProt Q9UIK5); assay: ICELISA against direct ELISA on recombinant TR
T1 sequence (chain, glycosylated): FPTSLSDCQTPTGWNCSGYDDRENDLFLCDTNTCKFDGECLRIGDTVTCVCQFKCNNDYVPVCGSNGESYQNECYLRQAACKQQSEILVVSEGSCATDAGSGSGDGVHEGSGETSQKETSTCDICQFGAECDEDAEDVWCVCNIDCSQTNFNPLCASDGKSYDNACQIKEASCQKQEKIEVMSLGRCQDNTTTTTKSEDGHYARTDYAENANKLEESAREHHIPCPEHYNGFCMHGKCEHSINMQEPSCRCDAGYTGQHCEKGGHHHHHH

[2] = target: T1, recombinant TR protein (extracellular domain of TR, amino acids 1-302, C-terminal 6xHis tag) (human); assay: ICELISA on recombinant TR, scFv pre-incubated with anti-E-tag antibody; based on total scFv
[3] = target: T2, native tomoregulin (TR) on TR-expressing cells (PC3-TR, CHO-TR) (human) (UniProt Q9UIK5); assay: live cell ICELISA on PC3-TR cells; based on total scFv concentration
T2 sequence (looked up): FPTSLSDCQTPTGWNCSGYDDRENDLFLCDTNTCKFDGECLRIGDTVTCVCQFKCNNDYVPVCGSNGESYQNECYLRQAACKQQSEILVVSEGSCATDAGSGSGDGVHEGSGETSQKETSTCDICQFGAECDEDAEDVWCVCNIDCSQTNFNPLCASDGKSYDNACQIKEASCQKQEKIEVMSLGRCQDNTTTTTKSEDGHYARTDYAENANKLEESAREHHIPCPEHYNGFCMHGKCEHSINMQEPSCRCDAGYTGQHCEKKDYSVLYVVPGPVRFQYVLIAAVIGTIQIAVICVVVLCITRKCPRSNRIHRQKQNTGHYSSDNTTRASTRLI

[4] = target: T3, recombinant TR protein (extracellular domain of TR, amino acids 1-302, C-terminal 6xHis tag) (human, UniProt Q9UIK5 41-302, glycosylated); assay: direct ELISA on recombinant TR, monomeric scFv
T3 construct: range 41-302; Secreted from baculovirus-infected High Five cells, purified by Ni chelate and size exclusion chromatography; also called 6×his-tagged recombinant TR; recombinant protein
T3 sequence: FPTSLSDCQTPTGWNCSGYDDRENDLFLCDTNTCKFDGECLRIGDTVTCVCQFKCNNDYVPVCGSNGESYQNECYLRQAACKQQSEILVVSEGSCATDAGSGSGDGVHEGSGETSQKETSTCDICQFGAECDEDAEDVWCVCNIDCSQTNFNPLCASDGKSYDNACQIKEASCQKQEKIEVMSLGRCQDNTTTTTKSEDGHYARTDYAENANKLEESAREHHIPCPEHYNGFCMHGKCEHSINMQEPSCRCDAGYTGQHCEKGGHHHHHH

[5] = target: T4, native tomoregulin (TR) on TR-expressing cells (PC3-TR, CHO-TR) (human, UniProt Q9UIK5 41-374); assay: FACS on PC3-TR cells, IgG against scFv monomer; not exactly quantified
T4 construct: whole, on cells; also called native TR; native receptor
T4 sequence (looked up): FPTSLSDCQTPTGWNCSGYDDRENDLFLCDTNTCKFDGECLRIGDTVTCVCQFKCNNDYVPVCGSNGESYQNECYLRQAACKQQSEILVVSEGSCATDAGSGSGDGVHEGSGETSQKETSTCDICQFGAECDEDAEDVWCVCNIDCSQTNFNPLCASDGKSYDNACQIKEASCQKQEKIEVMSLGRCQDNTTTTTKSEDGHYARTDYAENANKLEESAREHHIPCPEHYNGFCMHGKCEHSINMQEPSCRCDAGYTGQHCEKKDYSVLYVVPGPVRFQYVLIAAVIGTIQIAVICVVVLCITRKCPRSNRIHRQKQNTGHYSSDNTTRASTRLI
Description: (§1) Cells were detached with Cell Dissociation Buffer (GIBCO Invitrogen, Carlsbad, Calif.) and collected by centrifugation of 3000 rpm at 4° C. for 5 min. 2×10⁵ cells in 100 μl PBS buffer were incubated for 1 h at 4° C. with anti-TR antibodies at a range of concentrations. Excess antibody was washed away with 1 ml PBS followed by centrifugation, and cells were resuspended and incubated for 45 min at 4° C. in PBS 100 μl containing anti-mouse IgG-FITC (10 μg/mL, Vector Labs Inc.) as the second antibody. Excess antibody was washed away with 1 mL PBS and by centrifugation. Cells were resuspended in 200 μL PBS containing 5 μL propidium iodide (1 μg/ml). Fluorescence intensity was measured on a FACS Calibur (Becton Dickinson). Experiments were performed in triplicate.
(§2) Binding of AT-19 IgG to PC3 cells expressing TR was compared to mouse anti-TR IgG 2H8 by FACS. 2H8 is a murine IgG1 monoclonal antibody that reacts with the follistatin domains of the extra-cellular region of human TR protein (Afar et al., Mol. Cancer Ther., 3:921, 2004). It is used throughout as a positive control antibody.

[6] = target: T4, native tomoregulin (TR) on …; assay: live cell ELISA on PC3-TR cells
[7] = target: T4, native tomoregulin (TR) on …; assay: FACS on PC3-TR cells
Description: as §1, §2

- fold improvement of EC50 against monomeric AT-19 scFv [1]: > 20 fold
- EC50 [2]: 1.3 nM
- EC50 [3]: 8.5 nM
B1: AT-19 scFv immune complex (AT-19 scFv dimerized by pre-incubation with mouse anti-E-tag monoclonal IgG) (protein, part only; not given: E-tag and anti-E-tag IgG, not shown: small tags and cut ends)
scFv, part: QVQLVQSGGGLVQPGGSLRLSCAASGFTFSNYAMSWVRQAPGKGLEWVSAISGNGGATYYADSMKGRFTISRDNSKNTLSLQLNSLRVEDTAVYYCAKSLIWGYDRGVDYWGQGTLVTVSAGGGGSGGGGSGGGGSGAPHVILTQPPSASGTPGQRVTISCSGGASNIGTNSVNWYQQLPGTAPKLLLYTNDHRPSGVPDRFSGKSGTSASLAISGLQAEDEGDYYCAAWDDTMNGHVVFGGGTKLTVLG

- EC50 [4]: 22 nM
B2: AT-19 scFv (monomeric, monovalent single-chain anti-TR antibody) (scFv)
scFv: QVQLVQSGGGLVQPGGSLRLSCAASGFTFSNYAMSWVRQAPGKGLEWVSAISGNGGATYYADSMKGRFTISRDNSKNTLSLQLNSLRVEDTAVYYCAKSLIWGYDRGVDYWGQGTLVTVSAGGGGSGGGGSGGGGSGAPHVILTQPPSASGTPGQRVTISCSGGASNIGTNSVNWYQQLPGTAPKLLLYTNDHRPSGVPDRFSGKSGTSASLAISGLQAEDEGDYYCAAWDDTMNGHVVFGGGTKLTVLG
notes: also called monovalent AT-19 scFv; monomeric AT-19 scFv; not shown: E-tag from the pZ603 (pCANTAB5E-based) vector

- avidity effect (fold) against the scFv monomer [5]: > 20 fold
- EC50 [6]: 0.44 nM
- EC50 [7]: 0.17 nM
B3: AT-19 IgG (fully human IgG1 format of AT-19) (antibody, V domains shown)
VH: QVQLVQSGGGLVQPGGSLRLSCAASGFTFSNYAMSWVRQAPGKGLEWVSAISGNGGATYYADSMKGRFTISRDNSKNTLSLQLNSLRVEDTAVYYCAKSLIWGYDRGVDYWGQGTLVTVSA
VL: HVILTQPPSASGTPGQRVTISCSGGASNIGTNSVNWYQQLPGTAPKLLLYTNDHRPSGVPDRFSGKSGTSASLAISGLQAEDEGDYYCAAWDDTMNGHVVFGGGTKLTVLG
notes: also called fully human AT-19 IgG
